In patent US20130071431A1, “Method for Preserving Polypeptides Using A Sugar and Polyethyleneimine” (Stabilitech Ltd., priority 2008, published 2013):

Tests used:
[1] = Luciferase assay with luciferin reagent, freeze-dried with BSA (Example 10); format: biochemical
Procedure: Luciferase stock was purchased from Promega Corporation (code E1701) and consisted of 1 mg of purified protein at a concentration of 13.5 mg/ml, correlating to 2.13×10^−4M using an approximate molecular weight of 60 kDa. The stock was thawed and refrozen (untouched, without addition of any excipients) at −45° C. as 44 aliquots. These aliquots were subsequently used for all experiments.
Luciferin was purchased from Promega Corporation as a kit that also included ATP (code E1500). This kit shall henceforth be referred to as luciferin reagent and consisted of pairs of vials that required mixing before use. One vial contained a lyophilised powder and the other 10 ml of a frozen liquid. To produce stocks, these vials were mixed and then refrozen as 1 ml aliquots at −20° C. in standard 1.5 ml Eppendorf tubes. Vials and reconstituted luciferin reagent were stored at −20° C. in an opaque box and only removed under conditions of near-darkness. […]
The luciferase assay involved the mixing of various concentrations of luciferase with an undiluted aliquot of luciferin reagent in black opaque 96 well plates. The initial (linear) phase of this luminogenic reaction was then immediately quantified by a luminometer. As per the manufacturer's recommendation, luciferase samples were of a 100 μl volume and luminescence was initiated by addition of 100 μl of luciferin reagent. […]

[2] = Luciferase luminescence assay after freeze-drying (Example 4); format: biochemical; settings: freeze-dried in excipient of 1.092M sucrose, 0.0499M stachyose and 27 nM, 2.7 nM or 0.27 nM PEI
Procedure: The final concentrations of PEI and sugars were: • PEI: 27 nM, 2.7 nM or 0.27 nM • sucrose: 1.092 M, and • stachyose: 0.0499M.
All vials were set up in triplicate.
The vials contained a free-flowing freeze-dried powder. The powder was reconstituted by adding 1 ml PBS. […] Luciferase assay reagent was added to each well according to manufacturer's instructions and luminescence was read on a Synergy 2 luminometer.

Luciferase: luciferase enzyme purchased from Promega (code E1701 in Example 10)
lyoprotectant effects of sugar mix and PEI on luciferase activity ([1]; both added together before freeze-drying): synergistic
lyoprotectant contribution of excipient component on luciferase activity ([1]; sugar mix or PEI added after freeze-drying): wholly negates its contribution
thermal stability of luciferase (luminescence) [2]: improved thermal stability
